Experimental findings from patent US20220242946A1 (Johns Hopkins, published 2022) are described below.

In assay [1] the target is human IL-2 (residues 1-133) displayed on the surface of yeast (human, UniProt P60568 21-153). In words: titration of soluble antibody on yeast-displayed hIL-2, flow cytometry; apparent bivalent affinity. The method, then: After a final wash, cells were analyzed for antibody binding using a CytoFLEX flow cytometer (Beckman Coulter). Background-subtracted and normalized binding curves were fitted to a first-order binding model and equilibrium dissociation constant (KD) values were determined using GraphPad Prism.
Sequence of human IL-2 (residues 1-133) displayed on the surface of yeast (P60568 21-153 limits assumed): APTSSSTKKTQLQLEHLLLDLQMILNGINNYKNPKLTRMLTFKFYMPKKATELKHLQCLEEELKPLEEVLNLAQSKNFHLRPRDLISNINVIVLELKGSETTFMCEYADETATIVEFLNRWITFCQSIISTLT
After a 3-day incubation, secreted protein was captured from the supernatant with protein G resin, eluted with 0.1 M glycine pH 2.0, and analyzed via SDS-PAGE. […] Immunocytokine expression was scaled up in HEK 293F cells and the secreted protein was purified via protein G affinity chromatography followed by size-exclusion chromatography.

Assay [2] deals with T1, biotinylated human IL-2 immobilized on streptavidin-coated tips (human, UniProt P60568 21-153, biotinylated (site not stated)).
T1 construct: The construct used for biotinylated hIL-2 is not described; probably as the soluble hIL-2 (residues 1-133) with tags; also called biotinylated hIL-2; immobilized hIL-2; not shown: tags of the biotinylated hIL-2 are not described (the biotin acceptor peptide is told only for hIL-2Ra and hIL-2Rb)
T1 sequence (P60568 21-153): as the sequence (P60568 21-153 limits assumed) above
In words: bio-layer interferometry equilibrium titration, biotinylated hIL-2 on streptavidin tips. The method, then:
(§1) Less than 5 signal units (nm) of receptor was immobilized to minimize mass transfer effects. […] Surface regeneration for all interactions was conducted using a 15 second exposure to 0.1 M glycine pH 3.0. Experiments were carried out in PB SA (phosphate-buffered saline, pH 7.3 plus 0.1% bovine serum albumin (BSA, Thermo Fisher Scientific)) at 25° C. Data was visualized and processed using the Octet® Data Analysis software version 7.1 (Molecular Devices). Equilibrium titration curve fitting and KD value determination was implemented using GraphPad Prism, assuming all binding interactions to be first order.
For orientation: BLI is a label-free optical method that tracks binding on a fibre tip over time.

In assay [3] the target is T1, biotinylated human IL-2 immobilized on …. The description is as above. As to the method: as §1
The source holds these as a separate data set.

Like-named read-outs stand apart in the source and are kept apart here.

B1: recombinant F5111 antibody (human IgG1 lambda) (antibody, V domains shown)
VH: QLQLQESGPGLVKPSQTLSLTCTVSGGSISSGGYYWSWIRQHPGKGLEWIGYIYYSGSTYYNPSLKSRVTISVDTSKNQFSLKLSSVTAADTAVYYCARTPTVTGDWFDPWGRGTLVTVSS
VL: SNFMLTQPHSVSESPGKTVTISCTRSSGSIASNYVQWYQQRPGSSPTTVIYEDNQRPSGVPDRFSGSIDSSSNSASLTISGLKTEDEADYYCQSYDSSNVVFGGGTKLTVLG
notes: Expressed in HEK 293F cells; also called F5111 Ab; monoclonal antibody F5111
For the molecule B1, the Kd in assay [1] turned out to be 0.42 nM. For the same molecule, the “EC50 (read off the curve)” value in assay [2] is roughly 3 nM; in assay [3], roughly 0.6 nM.

A word on the EC50 (read off the curve): it is the concentration at which the effect is half-maximal. A lower EC50 (read off the curve) goes with greater potency.
